Experimental data: patent publication US6897294

Biological target: flt(1,2,3): flt-1 Ig-like domains 1, 2 and 3 only fused to the Fc of IgG (human) [IgG part: P01857]
Experiment: unlabeled VEGF titrated against 125I-VEGF165 binding to 1 ng immunoreactive flt(1, 2, 3) on anti-Fc plates; 4-parameter fit (FIG. 5)

Sequence of vascular endothelial growth factor VEGF165 (P15692 other isoform, or with tags, fused parts or gaps limits assumed): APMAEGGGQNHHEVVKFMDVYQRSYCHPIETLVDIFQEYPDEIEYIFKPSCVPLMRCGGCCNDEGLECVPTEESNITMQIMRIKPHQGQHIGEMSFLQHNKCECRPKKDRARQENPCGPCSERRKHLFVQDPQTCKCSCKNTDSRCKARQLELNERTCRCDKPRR

IC50: 1.34 ng/mL
Substance: vascular endothelial growth factor VEGF165 (from UniProt P15692 27-191) (ligand)
